T1: FcRL2, overexpressed on 3T3 cells (UniProt Q96LA5 20-508, limits assumed)
T1 construct: whole, on cells
T1 sequence (looked up): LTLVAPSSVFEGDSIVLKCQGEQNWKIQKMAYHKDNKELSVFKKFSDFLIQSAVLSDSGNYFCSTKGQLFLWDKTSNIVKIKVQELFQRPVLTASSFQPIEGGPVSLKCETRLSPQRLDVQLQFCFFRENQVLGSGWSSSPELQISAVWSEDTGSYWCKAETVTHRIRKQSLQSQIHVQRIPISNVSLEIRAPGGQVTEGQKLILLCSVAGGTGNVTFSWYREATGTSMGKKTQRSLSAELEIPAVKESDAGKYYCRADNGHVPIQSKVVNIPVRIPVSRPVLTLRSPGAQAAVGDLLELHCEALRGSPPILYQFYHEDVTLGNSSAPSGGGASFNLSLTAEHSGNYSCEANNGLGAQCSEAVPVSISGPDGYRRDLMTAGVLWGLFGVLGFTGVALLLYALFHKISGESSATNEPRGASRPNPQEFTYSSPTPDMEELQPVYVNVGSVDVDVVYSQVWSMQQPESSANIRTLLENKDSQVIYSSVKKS

T2: Fc Receptor-like 5 (FcRL5), full length, overexpressed on 3T3 or Raji cells (human, UniProt Q96RD9 16-977)
T2 construct: also called 3T3-FcRL5
T2 sequence: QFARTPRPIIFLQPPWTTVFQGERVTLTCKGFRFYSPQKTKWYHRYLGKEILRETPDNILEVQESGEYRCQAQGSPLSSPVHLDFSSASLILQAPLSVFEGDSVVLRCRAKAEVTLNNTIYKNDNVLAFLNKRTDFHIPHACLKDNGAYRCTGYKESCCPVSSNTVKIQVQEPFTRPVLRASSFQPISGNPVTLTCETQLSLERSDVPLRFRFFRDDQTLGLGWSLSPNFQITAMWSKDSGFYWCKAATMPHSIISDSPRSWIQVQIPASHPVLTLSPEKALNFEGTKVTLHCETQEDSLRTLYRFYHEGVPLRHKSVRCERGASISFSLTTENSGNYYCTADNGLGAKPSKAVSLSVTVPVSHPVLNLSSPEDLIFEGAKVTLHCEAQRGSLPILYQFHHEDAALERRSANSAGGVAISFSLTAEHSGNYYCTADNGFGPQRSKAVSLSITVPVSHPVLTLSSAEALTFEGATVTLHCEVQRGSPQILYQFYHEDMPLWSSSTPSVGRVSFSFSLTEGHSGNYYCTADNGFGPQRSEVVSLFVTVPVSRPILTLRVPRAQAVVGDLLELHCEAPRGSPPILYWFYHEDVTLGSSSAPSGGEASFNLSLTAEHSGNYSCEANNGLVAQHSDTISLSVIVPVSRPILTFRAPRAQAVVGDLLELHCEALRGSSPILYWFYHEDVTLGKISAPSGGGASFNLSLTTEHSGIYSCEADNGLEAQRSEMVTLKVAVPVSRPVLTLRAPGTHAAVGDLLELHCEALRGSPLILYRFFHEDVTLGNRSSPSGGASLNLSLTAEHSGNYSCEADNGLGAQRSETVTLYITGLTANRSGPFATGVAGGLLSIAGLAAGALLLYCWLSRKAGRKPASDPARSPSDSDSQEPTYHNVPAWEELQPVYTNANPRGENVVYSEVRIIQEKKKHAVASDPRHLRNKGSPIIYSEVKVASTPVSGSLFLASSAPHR

T3: FcRL6, overexpressed on 3T3 cells (UniProt Q6DN72 20-434, limits assumed)
T3 construct: whole, on cells
T3 sequence (looked up): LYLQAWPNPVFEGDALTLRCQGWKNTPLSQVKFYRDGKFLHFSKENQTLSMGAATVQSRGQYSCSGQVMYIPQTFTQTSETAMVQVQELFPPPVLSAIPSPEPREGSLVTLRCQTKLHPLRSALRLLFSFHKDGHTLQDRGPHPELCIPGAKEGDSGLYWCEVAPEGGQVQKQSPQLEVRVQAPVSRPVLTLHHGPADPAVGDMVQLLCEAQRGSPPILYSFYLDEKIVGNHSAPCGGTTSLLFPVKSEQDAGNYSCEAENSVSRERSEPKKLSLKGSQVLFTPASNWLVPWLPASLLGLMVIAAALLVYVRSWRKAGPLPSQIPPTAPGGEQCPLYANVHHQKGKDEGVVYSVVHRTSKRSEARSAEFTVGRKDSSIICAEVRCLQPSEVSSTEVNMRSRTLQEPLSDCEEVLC

T4: FcRL4, overexpressed on 3T3 cells (UniProt Q96PJ5 20-515, limits assumed)
T4 construct: whole, on cells
T4 sequence (looked up): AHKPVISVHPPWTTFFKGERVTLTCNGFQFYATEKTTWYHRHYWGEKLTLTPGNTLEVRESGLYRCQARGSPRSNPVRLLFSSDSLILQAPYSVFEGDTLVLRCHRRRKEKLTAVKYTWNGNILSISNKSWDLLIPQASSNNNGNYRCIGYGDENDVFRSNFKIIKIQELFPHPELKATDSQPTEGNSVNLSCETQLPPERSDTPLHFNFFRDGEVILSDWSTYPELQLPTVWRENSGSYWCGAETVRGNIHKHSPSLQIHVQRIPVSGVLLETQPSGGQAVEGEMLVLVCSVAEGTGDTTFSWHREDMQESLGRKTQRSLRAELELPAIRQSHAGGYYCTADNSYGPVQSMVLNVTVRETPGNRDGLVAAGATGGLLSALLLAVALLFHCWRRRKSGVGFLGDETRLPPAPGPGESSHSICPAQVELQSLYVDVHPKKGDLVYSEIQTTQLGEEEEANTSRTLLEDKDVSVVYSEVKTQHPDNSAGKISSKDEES

B1: ET200-079 (scFv)
scFv: SYELTQPPSASGTPGQRVTISCSGSSSNIGSNYVYWYQQLPGTAPKLFIYRNNQRPSGVPDRFSGSKSGTSASLAISGLRSEDEADYYCAAWDDSLSGYLFGTGTKVTVLGSRGGGGSGGGGSGGGGSLEMAEVQLVESGGGLVQPGRSLRLSCAASGFTFDDYAMHWVRQAPGKGLEWVSGISWNSGSIGYADSVKGRFTISRDNAKNSLYLQMNSLRAEDTALYYCANGDSNYYYGMDVWGQGTTVTVSSTSGQAGQHHHHHHGAYPYDVPDYAS
notes: screened as phage clone; entry is VL-linker-VH-His tag-HA tag
B2: ET200-081 (scFv)
scFv: QSALTQPASVSGSPGQSITISCTGTSSDIGGYNYVSWYQQHPGKAPKLMIYDVSNRPSGVSNRFSGSKSGNTASLTISGLQAEDEADYYCISYTRTWNPYVFGSGTKVTVLGSRGGGGSGGGGSGGGGSLEMAEVQLVQSGGGVVQPGGSLRLSCAASGFTFDDYAMHWVRQAPGKGLEWVSLISGDGGSTYYADSVKGRFTISRDNSKNSLYLQMNSLRTEDTALYYCAKDRAAAGYYYYGMDVWGQGTTVTVSSTSGQAGQHHHHHHGAYPYDVPDYAS
notes: as for B1
B3: ET200-042 (scFv)
scFv: QSVVTQPPSVSGAPGQTVTISCTGGSSNIGTGYFVNWYQQVPGKAPKLLILGNNNRPSGVPDRLSGSTSGTSASLAITGLQAEDEGTYYCQSYDSSLSGYVFGTGTKVTVLGSRGGGGSGGGGSGGGGSLEMAQVQLQQSGPGLVKPSQTLSLTCGISGDSVSTNSVAWHWIRQSPSRGLEWLGRTYYRSKWSNDYGVSVKSRITIIPDTSKNQFSLQLNSVTPEDTAVYYCARSSSWYQIFDYWGQGTLVTVSSTSGQAGQHHHHHHGAYPYDVPDYAS
notes: as for B1
B4: ET200-045 (scFv)
scFv: QPVLTQPPSVSVAPGKTATITCGGNNIGSESVHWYHQKPGQAPVLVIYDDAGRPSGIPERFTGSNSGNTATLTISRVEAGDEADYYCQVWDRNSAQFVFGPGTKVTVLGSRGGGGSGGGGSGGGGSLEMAEVQLVQSGAEVKKPGASVKVSCKASGYTFTSYGISWVRQAPGQGLEWMGWISAYNGNTNYAQKLQGRVTMTTDTSTSTAYMELRSLRSDDTAVYYCARGVHLDWWGQGTLVTVSSTSGQAGQHHHHHHGAYPYDVPDYAS
notes: as for B1
B5: ET200-069 (scFv)
scFv: QSVVTQPPSASGTPGQRVTISCSGSSSNIGSNYVYWYQQLPGTAPKLLIYSNNQRPSGVPDRFSGSKSGTSASLAISGLRSEDEADYYCAAWDDSLSGYVFGTGTKLTVLGSRGGGGSGGGGSGGGGSLEMAQVQLQQWGAGLLKPSETLSLTCAVYGGSFSGYYWSWIRQPPGKGLEWIGEINHSGSTNYNPSLKSRVTISVDTSKNQFSLKLSSVTAADTAVYYCARLYEGGYHGWGSWLSSDSWGQGTLVTVSSTSGQAGQHHHHHHGAYPYDVPDYAS
notes: screened as phage clone; entry is VL-linker-VH-His tag-HA tag; also called ET200-69
B6: ET200-044 (scFv)
scFv: QSVLTQPPSVSVSPGQTATIACSGHKLGDKYASWYQQKSGQSPVLIIYQDNKRPSGIPERFSGSNSGNTATLTISGTQALDEADYYCQAWDSSTYVAFGGGTKLTVLGSRGGGGSGGGGSGGGGSLEMAQVQLQESGPGLVKPSETLSLTCVVSGGSISSSNWWSWVRQPPGKGLEWIGEIYHSGSPNYNPSLKSRVTISVDKSKNQFSLKLSSVTAADTAVYYCARMTTHTFGYDAWGQGTLVTVSSTSGQAGQHHHHHHGAYPYDVPDYAS
notes: as for B1

Columns and labels:
[1] = molecular target: T1, FcRL2, overexpressed on 3T3 cells; experiment: phage clone on 3T3-FcRL2 cells
[2] = molecular target: T2, Fc Receptor-like 5 (FcRL5), full …; experiment: phage clone screening on cells
How it was run: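 scFv phage clones were incubated with live 3T3 cells overexpressing full-length FcRL5, then detected with mouse anti-M13 mAb and PE-anti-mouse Ig by flow cytometry. 3T3 cells expressing FcRL1, 2, 3, 4 or 6 served as negative-control targets.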

[3] = molecular target: T3, FcRL6, overexpressed on 3T3 cells; experiment: phage clone on 3T3-FcRL6 cells
SLAMF9 protein = SLAMF9 protein (UniProt Q96A28 19-236, limits assumed); experiment: phage clone on SLAMF9 protein
[4] = molecular target: T4, FcRL4, overexpressed on 3T3 cells; experiment: phage clone on 3T3-FcRL4 cells

Sequence of SLAMF9 protein (Q96A28 19-236 limits assumed): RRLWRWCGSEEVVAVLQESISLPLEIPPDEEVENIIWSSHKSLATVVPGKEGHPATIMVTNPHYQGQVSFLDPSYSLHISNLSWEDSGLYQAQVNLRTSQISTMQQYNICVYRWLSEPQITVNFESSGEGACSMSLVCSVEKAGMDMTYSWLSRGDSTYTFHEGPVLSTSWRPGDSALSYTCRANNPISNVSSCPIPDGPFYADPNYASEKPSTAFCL

Binder | binding result [1] | binding result [2] | binding result [3] | binding result (SLAMF9 protein) | binding result [4]
B1 | no binding | binds | no binding | no binding | no binding
B2 | no binding | binds | no binding | no binding | no binding
B3 | no binding | binds | no binding | no binding | no binding
B4 | no binding | binds | no binding | no binding | no binding
B5 | no binding | binds | no binding | no binding | no binding
B6 | no binding | binds | no binding | no binding | no binding

Reference: patent US20210388081A1 (Memorial Sloan Kettering, published 2021)
